Experiment [1] addresses TagRFP-T-CENP-C with the talin rod domain inserted into the middle (internal CENP-C-TR reporter) (Drosophila melanogaster | chicken) (UniProt P54939). As to the kind of experiment: quantitative two-colour fluorescence imaging of recruitment to kinetochores in live cells; S2 cells co-expressing VH-EGFP and TagRFP-T-CENP-C-TR; metaphase cells, 0.1% DMSO (bioriented kinetochores, under force); VH-EGFP to TagRFP-T ratio divided by the correction ratio from TagRFP-T-CENP-C-EGFP; 25 °C.

Experiment [2] has the same target. The experiment in a line: quantitative two-colour fluorescence imaging of recruitment to kinetochores in live cells; S2 cells co-expressing VH-EGFP and TagRFP-T-CENP-C-TR; 25 uM colchicine (unattached kinetochores, low/no force); VH-EGFP to TagRFP-T ratio divided by the correction ratio from TagRFP-T-CENP-C-EGFP; 25 °C.
Experiment [3] addresses TagRFP-T-CENP-C with the talin rod domain at the C terminus (C-terminal CENP-C-TR control reporter) (Drosophila melanogaster | chicken) (UniProt P54939). Described as above.

B1: vinculin head domain (aa 1-258) fused to EGFP (domain or fragment)
chain: MPVFHTRTIESILEPVAQQISHLVIMHEEGEVDGKAIPDLTAPVSAVQAAVSNLVRVGKETVQTTEDQILKRDMPPAFIKVENACTKLVRAAQMLQADPYSVPARDYLIDGSRGILSGTSDLLLTFDEAEVRKIIRVCKGILEYLTVAEVVETMEDLVTYTKNLGPGMTKMAKMIDERQQELTHQEHRVMLVNSMNTVKELLPVLISAMKIFVTTKNTKSQGIEEALKNRNFTVEKMSAEINEIIRVLQLTSWDEDAW
With B1, the stoichiometry N (VH molecules per CENP-C-TR) in experiment [1] amounted to 1.3. For the same molecule, the stoichiometry N (VH-EGFP molecules per TR) in experiment [2] was 0.9. Besides, the stoichiometry N (VH molecules per TR) in experiment [3] stood at 0.75.
